The values below come from patent US20230287348A1.

Experiment [1] concerns the target CD123 antigen on AML cells (THP-1 cell line, primary AML blasts) (human) (UniProt P26951). Nature of the experiment: cell-based or functional assay.
Experiment [2] deals with CD19 antigen on ALL cells (REH cell line, primary ALL blasts) (human) (UniProt P15391). Put plainly: cell-based or functional assay.
Chain of UniProt P15391 (P15391 20-556): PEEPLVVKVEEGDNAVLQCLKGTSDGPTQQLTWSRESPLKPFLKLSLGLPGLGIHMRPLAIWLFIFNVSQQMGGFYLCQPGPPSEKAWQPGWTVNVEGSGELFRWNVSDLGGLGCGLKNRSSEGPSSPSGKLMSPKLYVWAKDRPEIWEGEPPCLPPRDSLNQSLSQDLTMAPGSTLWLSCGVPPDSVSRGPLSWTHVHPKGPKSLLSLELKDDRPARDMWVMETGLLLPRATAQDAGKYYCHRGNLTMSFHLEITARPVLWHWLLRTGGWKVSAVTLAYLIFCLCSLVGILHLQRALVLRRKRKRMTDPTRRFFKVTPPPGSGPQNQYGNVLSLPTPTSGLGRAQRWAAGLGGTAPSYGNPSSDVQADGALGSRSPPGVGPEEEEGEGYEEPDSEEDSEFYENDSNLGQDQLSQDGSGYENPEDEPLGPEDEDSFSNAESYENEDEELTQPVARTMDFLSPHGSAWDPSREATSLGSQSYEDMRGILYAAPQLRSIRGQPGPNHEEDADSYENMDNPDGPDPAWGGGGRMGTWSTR

Chain of UniProt P26951 (P26951 19-378): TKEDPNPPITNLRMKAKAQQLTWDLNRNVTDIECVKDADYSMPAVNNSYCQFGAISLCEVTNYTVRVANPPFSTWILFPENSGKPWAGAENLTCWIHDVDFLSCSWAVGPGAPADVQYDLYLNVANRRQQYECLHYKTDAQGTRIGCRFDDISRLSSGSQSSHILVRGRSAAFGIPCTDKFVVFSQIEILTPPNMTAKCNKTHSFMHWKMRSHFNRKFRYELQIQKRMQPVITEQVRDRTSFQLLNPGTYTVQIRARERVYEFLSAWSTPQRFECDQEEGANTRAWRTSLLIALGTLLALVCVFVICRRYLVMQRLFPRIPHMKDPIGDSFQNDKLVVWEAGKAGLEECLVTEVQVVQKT

In experiment [1], “CD123·CAR (anti-CD123 chimeric antigen receptor: scFv from mAb 7G3 in frame with CH2CH3-CD28-OX40-ζ), expressed on CIK cells (from UniProt P10747 153-220; P43489 242-277; P20963 52-163)” gave a lysis of AML primary blasts by CD123·CAR+ CIK cell populations (cytotoxic assay) of 60% and a lysis of THP-1 AML cell line by CD123·CAR+ CIK cell populations (cytotoxic assay) of 85%.

As to “CD19·CAR (anti-CD19 chimeric antigen receptor: VL and VH of clone FMC63 in frame with CH2CH3-CD28-OX40-ζ), expressed on CIK cells (from UniProt P10747 153-220; P43489 242-277; P20963 52-163)”, in experiment [2], the lysis of ALL primary blasts by CD19·CAR+ CIK cell populations (cytotoxic assay) was found to be 56.8% and the lysis of REH ALL cell line by CD19·CAR+ CIK cell populations (cytotoxic assay) is 80%.
